Experimental data: patent publication US20030078221, “High affinity nucleic acid ligands of complement system proteins” (Gilead Sciences, Inc., published 2003)
Residue numbers refer to the chain shown, from its start.

Assays:
[1] = target: T1, Complement C5 (Homo sapiens, UniProt P01031;P01031 P01031:19-673,P01031:678-1676); experiment: filter; conditions: tags: Quidel
[2] = target: T1, Complement C5; experiment: filter; MgPBS 37C; conditions: tags: Quidel
Experimental: (§1) Individual cloned DNA was T7 transcribed with α-[³²P]-ATP and the full length [³²P]-2′-NH₂-RNA or 2′-F-RNA was gel-purified (as above). RNA was suspended at approximately 5,000 cpm per 30 μL sample (<10 pM), and aliquots were incubated with various concentrations of C1q, C3 or C5 in MgPBS for 10 minutes at 37° C. Samples were then filtered through nitrocellulose, the filters washed with buffer and dried under an infrared lamp, and counted with addition of scintillation fluid (Ecoscint A, National Diagnostics, Atlanta, Ga.). A background sample of RNA alone was run in parallel. […] Filters were washed and counted.
(§2) Sequences were grouped according to homology and function.

[3] = target: T1, Complement C5; experiment: filter; Group I affinities stated very similar; conditions: tags: Quidel
Experimental: as §1, §2

[4] = target: T2, Complement C1q (UniProt P02745;P02746;P02747 P02745:23-245,P02746:28-253,P02747:29-245); experiment: filter; above background at 0.1 and 0.5 nM C1q; conditions: tags: Quidel; chain copies: 6
T2 sequence (P02745 23-245, chain 1 of 3): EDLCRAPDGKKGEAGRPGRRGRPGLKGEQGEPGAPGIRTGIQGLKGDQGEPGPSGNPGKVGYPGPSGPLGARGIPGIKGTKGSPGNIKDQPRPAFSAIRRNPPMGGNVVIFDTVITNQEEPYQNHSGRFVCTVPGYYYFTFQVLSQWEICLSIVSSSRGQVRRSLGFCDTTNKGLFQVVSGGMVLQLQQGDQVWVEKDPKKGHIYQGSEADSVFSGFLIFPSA
T2 sequence (P02746 28-253, chain 2 of 3): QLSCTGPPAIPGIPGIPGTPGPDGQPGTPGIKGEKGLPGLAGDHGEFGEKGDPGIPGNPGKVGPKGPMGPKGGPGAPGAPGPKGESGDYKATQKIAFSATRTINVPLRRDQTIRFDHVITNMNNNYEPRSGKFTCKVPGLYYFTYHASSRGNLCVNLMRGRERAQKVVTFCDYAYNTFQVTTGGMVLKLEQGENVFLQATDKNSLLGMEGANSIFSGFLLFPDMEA
T2 sequence (P02747 29-245, chain 3 of 3): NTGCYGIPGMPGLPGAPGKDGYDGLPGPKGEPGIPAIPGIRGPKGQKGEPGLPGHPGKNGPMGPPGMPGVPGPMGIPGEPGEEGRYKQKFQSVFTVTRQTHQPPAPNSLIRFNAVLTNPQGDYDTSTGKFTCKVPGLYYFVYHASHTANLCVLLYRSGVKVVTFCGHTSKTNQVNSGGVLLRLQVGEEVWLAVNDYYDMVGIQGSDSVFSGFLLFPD

[5] = target: T1, Complement C5; experiment: filter; minimal binding truncate; conditions: tags: Quidel; stem-loop with UUU bulge
Experimental: as §1

[6] = target: T2, Complement C1q; experiment: filter; MgPBS 37C; SEQ 12 in listing differs from Table 2 near the 3' end; conditions: tags: Quidel; chain copies: 6
Experimental: as §1

[7] = target: T2, Complement C1q; experiment: filter; MgPBS 37C; conditions: tags: Quidel; chain copies: 6
Experimental: as §1

[8] = target: T2, Complement C1q; experiment: filter; above background; SEQ 20 in listing differs from Table 2; conditions: tags: Quidel; chain copies: 6
[9] = target: T1, Complement C5; experiment: filter; >10-fold over background at 100 and 10 nM C5; 2'-OMe interference; conditions: tags: Quidel
Text: The partially substituted 2′-OMe oligonucleotides were 5′-[³²P] -kinase-labeled. […] The oligonucleotides were eluted from the protein, alkaline hydrolyzed and then run on a 20% acrylamide/7 M urea/TBE sequencing gel. On adjacent tracks were run oligonucleotides not selected with C5. Band intensities were quantitated with on an Instantlmager (Packard, Meriden, Conn.).

[10] = target: T2, Complement C1q; experiment: filter; above background; SEQ 13 in listing differs from Table 2 near the 3' end; conditions: tags: Quidel; chain copies: 6
[11] = target: T1, Complement C5; experiment: filter; reduced binding; conditions: tags: Quidel
[12] = target: T2, Complement C1q; experiment: FP; nitrocellulose filter binding, MgPBS 37C; conditions: tags: Quidel; chain copies: 6
Experimental: as §1

[13] = target: T1, Complement C5; experiment: filter; Kd not given; conditions: tags: Quidel

B1: YL-56 (ssRNA)
RNA: GGGAGAUAAGAAUAAACGCUCAAGGUACACGCGGUCUGACGCGCUGAGUGUCAGUUUACCUUGUACUUCGACAGGAGGCUCACAACAGGC
modifications: 2'-F pyrimidines
In the case of B1, the Kd [1] is reported as 12 nM.

B2: YL-14 (ssRNA)
RNA: GGGAGAUAAGAAUAAACGCUCAAGUACGACGCGGUCCCGUGCGUGGAGUGCGGGUUUACCUUCGUAUUCGACAGGAGGCUCACAACAGGC
modifications: 2'-F pyrimidines
B2 showed a Kd [1] of 25 nM.

B3: F8 (ssRNA)
RNA: GGGAGGACGAUGCGGUCUCAUGCGCCGAGUGUGAGUUUACCUUCGUCAGACGACUCGCCCGA
modifications: 2'-F pyrimidines
For B3, the Kd [2] was 30 nM.

B4: K7 (ssRNA)
RNA: B3 RNA with C25U, C40A, U43G
modifications: 2'-F pyrimidines
B4: binds [3].

B5: G7 (ssRNA)
RNA: B3 RNA with C19G, A20C, G22A, C26U, U32G, G33C, A34U
modifications: 2'-F pyrimidines
B5: binds [3].

B6: H1 (ssRNA)
RNA: B3 RNA with U18G, C19G, G31C, G33C, A34C
modifications: 2'-F pyrimidines
B6: binds [3].

B7: C1q clone 22 (ssRNA)
RNA: GGGAGGACGAUGCGGGCAUAGUGGGCAUCCCAGGGUUGCCUAACGGCAUCCGGGGUUGUUAUUGGCAGACGACUCGCCCGA
modifications: 2'-NH2 pyrimidines
B7: binds [4].

Binder CGAUGCGGUCUCAUGCGUCGAGUGUGAGUUUACCUUCG (ssRNA, 2'-F pyrimidines) [C6 38mer truncate] has a Kd [5] of 20 nM.

GGGAGGAGGAUCGGUGUUCAGCAUUCAGAUCUUCAGACGACUCGCCCGA (ssRNA, 2'-F pyrimidines) [E4c] was tested, and the Kd [2] was 50 nM.

B8: C1q clone 50 (ssRNA)
RNA: GGGAGGACGAUGCGGGUGGAGUGGAGGUAUAACGGCCGGUAGCGCAUCCCACUCGGGUCUGUGCUAGACGACUCGCCCGA
modifications: 2'-NH2 pyrimidines
For B8, the Kd [6] was 0.979 nM.

B9: C1q clone 33 (ssRNA)
RNA: GGGAGGACGAUGCGGGUUGCUGGUAGCCUGAUGUGGGUGGAGUGAGUGGAGGGUUGAAAAAUGCAGACGACUCGCCCGA
modifications: 2'-NH2 pyrimidines
In the case of B9, the Kd [7] is reported as 3.85 nM.

B10: C9 (ssRNA)
RNA: GGGAGGACGAUGCGGUGAGCGUGUAAAACGGUUUCGAUAGAGCCUCAGACGACUCGCCCGA
modifications: 2'-F pyrimidines
In the case of B10, the Kd [2] is reported as 45 nM.

B11: C1q clone 67 (ssRNA)
RNA: GGGAGGACGAUGCGGCAGACGACUCGCCCGAGGGGAUCCCCCGGGCCUGCAGGAAUUCGAUAUCAGACGACUCGCCCGA
modifications: 2'-NH2 pyrimidines
B11: binds [8].

B12: C1q clone 23c (ssRNA)
RNA: GGGAGGACGAUGCAAGUGGAGUGGAGGUAUAACGGCCGGUAGGCAUCCCACUCGGGCCUAGCUCAGACGACUCGCCCGA
modifications: 2'-NH2 pyrimidines
B12: binds [4].

CGCCGCGGUCUCAGGCGCUGAGUCUGAGUUUACCUGCG (ssRNA, 2'-F pyrimidines; selected purines 50% 2'-OMe) [M3010]: binds [9].

CGCCGCGGUCUCAGGCGCUGAGUCUGAGUUUACCUGCG (ssRNA, 2'-F pyrimidines; selected purines 50% 2'-OMe) [M3030]: binds [9].

CGCCGCGGUCUCGGGCGCUGAGUCUGAGUUUACCUGCG (ssRNA, 2'-F pyrimidines; selected purines 50% 2'-OMe) [M3020]: binds [9].

B13: C1q clone 43 (ssRNA)
RNA: GGGAGGACGAUGCGGUUUCUCGGCCAGUAGUUUGCGGGUGGAGUGGAGGUAUAUCUGCGUCCUCGCAGACGACUCGCCCGA
modifications: 2'-NH2 pyrimidines
B13: binds [4].

B14: A6 (ssRNA)
RNA: GGGAGGACGAUGCGGUCCGGCGCGCUGAGUGCCGGUUUAUCCUCGUCAGACGACUCGCCCGA
modifications: 2'-F pyrimidines
In the case of B14, the Kd [2] is reported as 35 nM.

B15: C1q clone 78 (ssRNA)
RNA: GGGAGGACGAUGCGGGUGGAGUGGAGGGUAAACAAUGGCUGGUGGCAUUCGGAAUCUCCCAACGUAGACGACUCGCCCGA
modifications: 2'-NH2 pyrimidines
B15: binds [10].

B16: C1q clone 30 (ssRNA)
RNA: GGGAGGACGAUGCGGGUGGAGUGGGGAUCAUACGGCUGGUAGCACGAGCUCCCUAACAGCGGUCAGACGACUCGCCCGA
modifications: 2'-NH2 pyrimidines
B16: binds [4].

B17: C1q clone 40 (ssRNA)
RNA: GGGAGGACGAUGCGGCUGGUAGCAUGUGCAUUGAUGGGAGGAGUGGAGGUCACCGUCAACCGUCAGACGACUCGCCCGA
modifications: 2'-NH2 pyrimidines
B17: binds [4].

B18: C1q clone 47 (ssRNA)
RNA: GGGAGGACGAUGCGGGUGGAGCGGAGGUUUAUACGGCUGGUAGCUCGAGCUCCCUAACACGCGGUAGACGACUCGCCCGA
modifications: 2'-NH2 pyrimidines
B18: binds [4].

B19: YL-79 (ssRNA)
RNA: GGGAGAUAAGAAUAAACGCUCAAGAACCACGCGGUCUCAGGCGUAGAGUCUGAGUUUACCUUGGUUUUCGACAGGAGGCUCACAACAGGC
modifications: 2'-F pyrimidines
Binder B19 has a Kd [1] of 15 nM.

B20: YL-13 (ssRNA)
RNA: B19 RNA with A25G, C28G, A29C, U44C, A45U, U62G, G63C, U66C
modifications: 2'-F pyrimidines
B20 gave a Kd [1] of 6 nM.

B21: C1q clone 45 (ssRNA)
RNA: GGGAGGACGAUGCGGUGGAGUGGAGGUAUACCGGCCGGUAGCGCAUCCCACUCGGGUCUGUGCUCAGACGACUCGCCCGA
modifications: 2'-NH2 pyrimidines
B21 gave a Kd [7] of 1.38 nM.

GAUGCGGUCUCAUGCGUCGAGUGUGAGUUUACCUUC (ssRNA, 2'-F pyrimidines) [C6 36mer truncate] showed a Kd [11] of 50 nM.

B22: C1q clone 14 (ssRNA)
RNA: GGGAGGACGAUGCGGCACCUCACCUCCAUAUUGCCGGUUAUCGCGUAGGGUGAGCCCAGACACGACAGACGACUCGCCCGA
modifications: 2'-NH2 pyrimidines
For B22, the Kd [7] was 2.4 nM.

B23: C1q clone 3 (ssRNA)
RNA: GGGAGGACGAUGCGGGAGGAGUGGAGGUAAACAAUAGGUCGGUAGCGACUCCCACUAACAGGCCUCAGACGACUCGCCCGA
modifications: 2'-NH2 pyrimidines
B23: binds [4].

B24: E5c/E11 (ssRNA)
RNA: GGGAGGACGAUGCGGUCCGGCGCGCUGAGUGCCGGUUAUCCUCGUCAGACGACUCGCCCGA
modifications: 2'-F pyrimidines
B24 showed a Kd [2] of 60 nM.

B25: C1q clone 36 (ssRNA)
RNA: GGGAGGACGAUGCGGGAGGAGUGGAGGUAAACAAUAGGCCGGUAGCGACUCCCACUAACAGCCUCAGACGACUCGCCCGA
modifications: 2'-NH2 pyrimidines
For B25, the Kd [12] was 0.29 nM.

B26: C1q clone 12 (ssRNA)
RNA: B25 RNA with A17U, C39U, C55G, A60G
modifications: 2'-NH2 pyrimidines
B26: binds [4].

GACGAUGCGGUCUCAUGCGUCGAGUGUGAGUUUACCUUCGUC (ssRNA, 2'-F pyrimidines) [C6 42mer truncate]: binds [13].
